Data from patent publication US20190262327A1, “COMBINATION OF A BACE INHIBITOR AND AN ANTIBODY OR ANTIGEN-BINDING FRAGMENT FOR THE TREATMENT OF A DISORDER ASSOCIATED WITH THE ACCUMULATION OF AMYLOID BETA” (ASTRAZENECA AB, priority 2016, published 2019).

Columns and labels:
[1] = system: human Abeta peptides (Abeta 1-42, Abeta 1-43, Abeta 1-16, Abeta 12-28, Abeta 17-42, Abeta pyro-3-42, Abeta pyro-11-42); test: HTRF competition binding experiments with panel of Abeta peptides; conditions: competitor 10 uM down to 0.17 nM; antibody 0.5 nM
Procedure: The specificity of Abet0380-GL IgG1-TM was examined in competition binding experiments. In brief Abet0380-GL IgG1-TM (0.5 nM) was incubated (1 hr at room temperature) with a range of different concentrations (10 uM down to 0.17 nM) of a panel of full length, truncate and pyro human Abeta peptides (Abeta 1-42, Abeta 1-43, Abeta 1-16, Abeta 12-28, Abeta 17-42, Abeta pyro-3-42, or Abeta pyro-11-42).
Following the incubation between Abet0380-GL IgG1-TM and the Abeta peptides N-terminal biotin Abeta 1-42 (1.5 nM) was added followed by a europium cryptate labelled anti-human Fc antibody (0.8 nM) (CisBio Cat. No. 61HFCKLB) and streptavidin-XL^entl (5 nM) (CisBio Cat. No. 611SAXLB). The assay was then incubated for a further 2 hrs at room temperature before reading on an Envision plate reader (PerkinElmer) using a standard homogeneous time resolved fluorescence (HTRF) read protocol. In the absence of competition, the interaction of N-terminal biotin Abeta 1-42 with Abet0380-GL IgG1-TM (in complex with streptavidin-XL^entl and europium cryptate labelled anti-human Fc antibody, respectively) could then be measured via time resolved fluorescence resonance energy transfer (TR-FRET) due to the proximity of the europium cryptate donor and XL^665 acceptor fluorophores. […]

Amyloid plaques = test: In vitro immunohistochemistry on human Alzheimer's Disease brain sections
Description: Briefly, the lead antibodies were screened on human Alzheimer's Disease brain sections and Tg2576 mouse brain sections to identify anti-Amyloid beta 1-42 antibodies that bound to Amyloid plaques in vitro.
In these experiments, human brain tissue was isolated from the frontal cortex of two individuals with severe Alzheimer's Disease (ApoE genotype 3/3, Braak stage 6 and ApoE genotype 4/3, Braak stage 5). As a control, equivalent tissue was isolated from one non-dementia individual (ApoE genotype 3/3, Braak stage 1). Mouse brain tissue was isolated from Tg2576 mice at an age of 15 months (2 mice) and 22 months (2 mice). Antibodies were tested at concentrations of 2, 5, 10 and 20 ug ml^−1.

Aβ1-42 aggregate = biological target: T1, Aβ1-42 aggregate (Homo sapiens, UniProt P05067); test: Western blot of Abeta 42 aggregate preparation (PICUP and non PICUP); format: binding; conditions: primary antibody 2 ug/ml; non PICUP and PICUP Aβ42 aggregate
T1 construct: non-cross-linked A[…] 1-42 aggregate
Procedure: To cross-link the A042 oligomers before SDS-PAGE, PICUP (photo-induced cross-linking of peptides) was carried out as follows. A 1 mM solution of Ru(Bpy) was created by adding 2 μl of stock (at 10 mM) to 18 μl of 1×PBS. In addition, a 20 mM solution of ammonium persulphate (APS) was created by adding […] of stock (at 200 mM) to 18 μl of 1×PBS. Unused stock was immediately snap-frozen on dry ice and returned to the −80° C. freezer. In the dark room, 5 μl of Ru(Bpy) was added to 80 μl of aggregate (neat 10 uM sample), followed by 5 μl of APS. Samples were irradiated with a lamp in the dark room for 10 secs. 30 uls of (4×) LDS Sample buffer was added immediately.
SDS-PAGE was then performed on cross-linked (PICUP) and non-cross-linked A[…] 1-42 aggregate. The solutions were incubated in a hot block at 70° C. for 10 minutes. Meanwhile, a marker was created by combining 5 μl of Magic Mark XP Western Protein Standard, 5 μl of Novex Sharp Pre-stained Protein Standard. After the ten-minute incubation, the samples plus marker were loaded onto a NuPAGE Novex 4-12% Bis-Tris Gels (1.0 mm, 15 well, 15 μl per well) with MES running buffer. The gels were run at 200 V for 35 minutes. […]
During the final washes, the chemi-luminescence SuperSignal West Dura substrate (Thermo Scientific; 34075) were allowed to warm to room temperature. […]

T1 sequence (P05067 672-713 limits assumed): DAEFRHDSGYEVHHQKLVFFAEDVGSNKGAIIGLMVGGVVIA

B1: Abet0380-GL IgG1-TM: germlined Abet0380; VH SEQ ID NO: 524, VL SEQ ID NO: 533; human IgG1 triple mutant format (antibody, listed as Homo sapiens, V domains shown)
VH: EVQLLESGGGLVQPGGSLRLSCAASMGNFNYQTMWWVRQAPGKGLEWVSVIGKTNENIAYADSVKGRFTISRDNSKNTLYLQMNSLRAEDTAVYYCAREWMDHSRPYYYYGMDVWGQGTLVTVSS
VL: SYELTQPPSVSVSPGQTASITCSGHNLEDKFASWYQQKPGQSPVLVIYRDDKRPSGIPERFSASNSGHTATLTISGTQAMDEADYYCSSQDTVTRVFGGGTKLTVL
modifications: human IgG1 triple mutant constant region; /note=“Abet0380-GL”
notes: germlined Abet0380; human IgG1 triple mutant format
inhibition of antibody : N-terminal Biotin Abeta 1-42 binding by Abeta 1-16 or Abeta 12-28 [1]: No inhibition
plaque recognition score (Amyloid plaques; human AD brain section, ApoE genotype 3/3, Braak stage 6, 10 μg/ml): 3
core plaques (CP) staining score (Amyloid plaques; human AD brain sections): 3
staining of diffuse plaques (DP) and cerebral amyloid angiopathy (CAA) plaques (Amyloid plaques; relative to core plaques, Tg2576 and human AD brain sections): to a lesser extent
Abeta42 recognition profile by Western blot (Aβ1-42 aggregate): specifically recognises Aβ1-42 monomer and low n oligomer species up to and including pentamer
